From paper PMC5815017
pKd: −log10 of the molar value.

Columns and labels:
[1] = biological target: T1, Spo0J (ParB) (Bacillus subtilis) (UniProt P26497); experiment: SPR; conditions: apparent Kd; SPR (ReDCaT, Biacore T200), HBS-EP+: 10 mM HEPES pH 7.4, 150 mM NaCl, 3 mM EDTA, 0.005% Surfactant P20, 25 C; ParB given as dimer
T1 sequence: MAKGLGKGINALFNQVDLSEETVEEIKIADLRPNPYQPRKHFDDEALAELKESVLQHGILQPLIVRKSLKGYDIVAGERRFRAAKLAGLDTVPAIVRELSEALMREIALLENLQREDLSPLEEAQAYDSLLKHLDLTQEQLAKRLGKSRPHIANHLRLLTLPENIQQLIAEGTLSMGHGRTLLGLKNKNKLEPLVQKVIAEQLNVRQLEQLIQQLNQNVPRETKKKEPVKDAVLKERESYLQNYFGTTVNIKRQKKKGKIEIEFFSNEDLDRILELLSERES

[2] = biological target: T2, ParB (Caulobacter crescentus) (UniProt B8GW30); experiment: SPR; conditions: value assigned by figure order; SPR (ReDCaT, Biacore T200), HBS-EP+: 10 mM HEPES pH 7.4, 150 mM NaCl, 3 mM EDTA, 0.005% Surfactant P20, 25 C; ParB given as dimer
T2 sequence: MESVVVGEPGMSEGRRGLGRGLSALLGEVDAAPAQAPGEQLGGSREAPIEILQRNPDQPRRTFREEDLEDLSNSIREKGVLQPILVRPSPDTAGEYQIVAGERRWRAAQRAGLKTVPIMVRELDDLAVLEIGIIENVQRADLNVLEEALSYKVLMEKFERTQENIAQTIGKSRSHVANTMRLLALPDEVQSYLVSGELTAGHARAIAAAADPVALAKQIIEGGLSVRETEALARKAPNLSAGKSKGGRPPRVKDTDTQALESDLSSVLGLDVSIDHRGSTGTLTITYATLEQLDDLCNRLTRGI

Sequence	pKd [1]	pKd [2]
AGAATGTTCCACGTGAAACAAAGA / TCTTTGTTTCACGTGGAACATTCTCCTACCCTACGTCCTCCTGC [B. subtilis parS 359]	6.94	–
CGATGTTTCCACGTGAAACAAGGC / GCCTTGTTTCACGTGGAAACATCGCCTACCCTACGTCCTCCTGC [parS site 7]	–	6.84
